According to paper PMC8547449 (2021):

Biological target: T1, C4b-binding protein (human, UniProt P04003 49-597; P20851 18-252)
T1 chain 1: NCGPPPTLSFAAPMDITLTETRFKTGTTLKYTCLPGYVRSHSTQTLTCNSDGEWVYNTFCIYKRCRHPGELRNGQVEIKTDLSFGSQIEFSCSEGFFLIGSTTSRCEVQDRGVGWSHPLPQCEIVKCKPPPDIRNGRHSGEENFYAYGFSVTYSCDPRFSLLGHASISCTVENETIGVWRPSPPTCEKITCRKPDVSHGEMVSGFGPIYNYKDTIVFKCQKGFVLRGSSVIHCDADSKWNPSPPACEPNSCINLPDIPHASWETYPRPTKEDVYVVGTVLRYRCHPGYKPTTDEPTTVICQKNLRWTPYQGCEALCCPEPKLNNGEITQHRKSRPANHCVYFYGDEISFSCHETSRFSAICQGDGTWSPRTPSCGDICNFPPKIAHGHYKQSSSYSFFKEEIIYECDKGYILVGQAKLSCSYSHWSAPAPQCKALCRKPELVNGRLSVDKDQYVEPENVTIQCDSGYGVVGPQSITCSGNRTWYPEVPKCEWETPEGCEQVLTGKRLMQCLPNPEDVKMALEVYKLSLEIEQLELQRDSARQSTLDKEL
T1 chain 2: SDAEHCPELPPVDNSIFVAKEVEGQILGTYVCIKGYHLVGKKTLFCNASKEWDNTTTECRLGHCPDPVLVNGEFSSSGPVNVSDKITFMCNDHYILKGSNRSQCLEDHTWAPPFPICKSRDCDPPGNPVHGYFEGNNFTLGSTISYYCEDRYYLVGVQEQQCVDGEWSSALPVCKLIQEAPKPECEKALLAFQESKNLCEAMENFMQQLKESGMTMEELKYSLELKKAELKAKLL
Assay: SPR

B1: M28 protein, recombinant, affinity tag removed by TEV protease (natural protein)
chain: AESPKSTETSANGADKLADAYNTLLTEHEKLRDEYYTLIDAKEEEPRYKALRGENQDLREKEGKYQDKIKKLEEKEKNLEKKSEDVERHYLKKLDQEHKEQEERQKNLEELERQSQREIDKRYQEQLQKQQQLETEKQISEASRKSLSRDLEASRAAKKDLEAEHQKLKEEKQISDASRQGLSRDLEASRAAKKDLEAEHQKLKEEKQISDASRQGLSRDLEASREAKKKVEADLAEANSKLQALEKLNKELEEGKKLSEKEKAELQARLEAEAKALKEQLAKQAEELAKLKGNQTPNAKVAPQANRSRSAMTQQKR
Q: For B1, which Kd is on record?
A: Its Kd is 0.188 nM.
